Data taken from the PETadex activity labels (doi:10.1021/acsomega.4c04843).

B1: unnamed (protein)
chain: MPPFRSSRWLSGGHVQTLYSPLWRASPQLQRRRERMTLQDGDFIDLDWYGPEGEATNCVLLLHGLTGSSASLYILGQQQALAARGWQSAAVNWRGCSGEPNHRARGYHSGVSEDLADVVKQLTLRYPHKLFAAIGYSLGGNVLLKYLGEKGSNTPLKAAVAVSVPFRLDHCAERINKGFSRVYQARFLRGLRRYVEHKRQAFLRQGRRGELARLAALETLKGMKTFWDFDGRVTAPLHGFESADDYYRRCSSAFFVEQIRIPTLIVHSLDDPFIYPQSVPKAEVLPSCVTLELHASGGHVGFIEGPPWRPRYYLEHRLPNWLQSQLCSQGKTHNTSALLSN
B2: unnamed (protein)
chain: MMGYITAHDGTNLYVEDVGFGEPIVFLHGWPANNNMFEYQKNALVEAGYRYIGIDFRGYGKSDAPATGYDYETMASDVHMVVYGLGLKNFTLVGFSMGGAIAVRYAADYKEDGLNKLVLAGAAAPIFTQRADYPYGMTTDEVDALIDDTRADRPKMLEGFGEIFFEKEHSKPMQNWFHHLALVASSHGTIASAQALRDEDLRDALPKIDVETLIIHGVHDKICPFAFAEQMEQGISNARIERFEESGHGTVLDEREKFNDTLLQFVQ
B3: unnamed (protein)
chain: MFRFHIVSALLTLFIAVPSQAHDVGQREIKISGAEPGRNLEVSVWYPAAIDGKATLIGDNIIFKGAPAVIDATPEKGSFPLLVMSHGSGGRAQGMAWLATELVKAGIIVAAPNHPGTTSGDSTPQDTPKIWQRTGDLSAVIDTMTTDPAWSGIIDKNKISVLGFSLGGAAAMEIAGARANLEAYARYCDTYGKWDCAWYAGGIGYRDDKQIKVDKVDLRSVDKSRFEQSNLDRRIASAIMIDPGLAQAYDAQSLASISIPMSFINLGEVETIPTGVVADKLASITPQGTYVTVAGATHWSFLPECKKGAADRLKSAGEVDPICSDDARRPRADIHADITKLVLKALQSMPKT
B4: unnamed (protein)
chain: MFRFHIVSALLTLFIAVPSQAHDVGQREIKISGAEPGRNLEVSVWYPAAIDGKATLIGDNIIFKGAPAVIDATPEKGSFPLLVMSHGSGGRAQGMAWLATELVKAGIIVAAPNHPGTTSGDSTPQDTPKIWQRTGDLSAVIDTMTTDPAWSGIIDKNKISVLGFSLGGAAAMEIAGARANLEAYARYCDTYGKWDCAWYAGGIGYRDDKQIKVDKVDLRSVDKSRFEQSNLDRRIASAIMIDPGLAQAYDAQSLASISIPMSFINLGEVETIPTGVVADKLASITPQGTYVTVAGATAFSFLPECKKGAADRLKSAGEVDPICSDDARRPRADIHADITKLVLKALQSMPKT
B5: unnamed (protein)
chain: MFRFHIVSALLTLFIAVPSQAHDVGQREIKISGAEPGRNLEVSVWYPAAIDGKATLIGDNIIFKGAPAVIDATPEKGSFPLLVMSHGSGGRAQGMAWLATELVKAGIIVAAPNHPGTTSGDSTPQDTPKIWQRTGDLSAVIDTMTTDPAWSGIIDKNKISVLGFALGGAAAMEIAGARANLEAYARYCDTYGKWDCAWYAGGIGYRDDKQIKVDKVDLRSVDKSRFEQSNLDRRIASAIMIDPGLAQAYDAQSLASISIPMSFINLGEVETIPTGVVADKLASITPQGTYVTVAGATHFSFLPECKKGAADRLKSAGEVDPICSDDARRPRADIHADITKLVLKALQSMPKT
B6: unnamed (protein)
chain: MFRFHIVSALLTLFIAVPSQAHDVGQREIKISGAEPGRNLEVSVWYPAAIDGKATLIGDNIIFKGAPAVIDATPEKGSFPLLVMSHGSGGRAQGMAWLATELVKAGIIVAAPNHPGTTSGDSTPQDTPKIWQRTGDLSAVIDTMTTDPAWSGIIDKNKISVLGHSLGGAAAMEIAGARANLEAYARYCDTYGKWDCAWYAGGIGYRDDKQIKVDKVDLRSVDKSRFEQSNLDRRIASAIMIDPGLAQAYDAQSLASISIPMSFINLGEVETIPTGVVADKLASITPQGTYVTVAGATHFSFLPECKKGAADRLKSAGEVDPICSDDARRPRADIHADITKLVLKALQSMPKT
B7: unnamed (protein)
chain: MRKETAWFVGGAAIAAATAAGASVWSQYGSLVRWQEPELPIQPTTRRRHTYTYKIVHDRPLQFDLYLPPGEGPFPVAVYAHGGAFVRGNRSMVTLFHPLLDHFLGKGIAVVSIDYRLFEDGVYFPDNIFDVSDALCYLKQHESLLTLDTSQLLVWGDSAGAALMLATALDRYRQFAGDLGDDLPTIKGVIALYPPTNFLLFKFIQTWLAHLKFYEGSREEWRELMVKCSPVSHLYADAPPILLLHGKKDPIVPFGQALHFVEHASDVGANVQLISFPNGTHSLASFLQSDNPIKEEQLMARINRFIEECLG
B8: unnamed (protein)
chain: MVPTTVDFDTLCPEPIFQDRWVATPRGRVFTRTWETSHLRSDVPIVLLHDSLGCVDLWRSFPAALCAATQRRVIAYDRLGFGRSDACLTPPLLSFIDDEPSTSFAALQSAFQLTHFIALGHSVGGCMAVHCAGQYVEQCQGLITIAAQAVNEPRTQQGIEEARAAFQMPEQFAKLEKYHGNKARWVLNGWIDTWLHPAFEHWSLTPALQHVHCPTLVLHGENDEYGSHRQPEGIARHTRGPAHTEILPGVGHVPHREVEAVVVHYVSEFIERLTP

substrate: pNPB; experiment: Proxy for plastic degradation [p-nitrophenol (pNP) release]; conditions: pH 7.4

Protein | Proxy for plastic degradation
B1 | 3 U/mL
B3 | 110 U/mL
B4 | 15 U/mL
B5 | 15 U/mL
B6 | 15 U/mL
B7 | 25 U/mL
B8 | 30 U/mL

same assay, conditions: pH 7.4; 37 °C

Protein | Proxy for plastic degradation
B2 | 245 U/mL

same assay, conditions: pH 7.4; 42 °C

Protein | Proxy for plastic degradation
B2 | 300 U/mL

substrate: PET; experiment: Proxy for plastic degradation [Released monomer concentration (HPLC/LC-MS) (TPA)]; conditions: pH 8

Protein | Proxy for plastic degradation
B2 | 3.7 mM/mg
